Measured values from the supplement of paper PMC11502859.

Test system: HEK293T
Test: median enrichment of reporter reads in eGFP-reduced (low/intermediate) vs eGFP-high sorted cells (eGFP-extension fusion abundance) (ratio); higher = stronger loss of eGFP-fusion protein abundance (more destabilising extension)
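Further: lentiviral eGFP-IRES-mCherry reporter pool sorted by FACS 96 h post-transduction, gated on mCherry-high cells, Illumina read counts normalized per million, median across four biological replicates.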

Chain of EIF2AK2 (chain, as listed by the source): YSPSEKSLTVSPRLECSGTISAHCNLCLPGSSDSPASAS

Row | Substance | median enrichment
1 | CLQGSKLQR [OR7A5] | 3.17
2 | LPF [SDHD] | 0.443
3 | CASALEETTGSPICLEFLLLLLLVCFQISLCFLLCSRKVLQNHREKVHCYKGIPTHWRL [PAQR9] | 25.9
4 | YVFLQCVLQARFIITYRFMISKIK [CLEC3A] | 9.75
5 | RLSTGPLHTISLIYVPSTLPQISGSGPGTWEGTGVRGCMGALAAPGSVVGRKLWKL [LRRC73] | 6.15
6 | EAWLPPESCSLKLGF [POU2AF1] | 0.528
7 | LLLL [Leu04] | 9.42
8 | CPAVGMAGLPGQTR [SLC25A10] | 0.543
9 | RAQLLRAQTPA [TNK1] | 1.82
10 | YAPRR [OTUD6A] | 0.578
11 | YVLCCIPFSFLQMTMNFKLWGQCCNIFTFSNSQNLKNVKLCLVCFS [INPP4B] | 5.86
12 | KKKKKKRRKKLL [CCNT1] | 0.26
13 | LNGSI [PHF20L1] | 0.416
14 | LNWD [PIK3C3] | 0.342
15 | WNR [ZC3HAV1] | 0.487
16 | CNHLTRTIGAPVASAHCLSLEKWRNKCYIYLCV [FAM149A] | 6.79
17 | SAGAFVAISL [MSI2] | 3.7
18 | SKTWPENPQVLQRKTELGKGESWKDGAD [ABHD15] | 0.348
19 | WDGR [ZNF772] | 0.288
20 | LALLSRWGLPETVCFVSPTTITATWLLPCGRRVTG [SF3B3] | 34.6
21 | YPHRGAGEGALDN [TMEM203] | 0.51

Row | Substance | median enrichment
22 | YTPNNLLPPLAPVAYISS [TMEM169] | 11.3
23 | YTSVLNQDLTQKD [GTF2IRD1] | 0.784
24 | WAVSLTCPGTPAPGLGRELTRTGCSQKAGPSLSPKPLLDLWRSCRLDREAVPLSSPSPSRASPWSFRSSFWGLFQVRRMEEGG [FOXN4] | 4.84
25 | KGPPRAQGPGAPRGWGQTKTRQRGERRERAGAGPLGAELGASGGRRLMFYKL [IER5L] | 40.8
26 | GEVLPGPRRGDREHHCHPGEPGAGAPGACRLRQGRCGRDDAALGCGVGSPKHPRQQPRPWPHQWHRGAPATGWPSGQPEHQGH [DECR2] | 0.598
27 | LGKLPCRA [ZNF75D] | 0.566
28 | YWAPSL [MSN] | 2.04
29 | RKINYTFYSPPEDHCPKAGSICSNNAAFTSSVHLCS [OR4M1] | 10.5
30 | QLRTLPFFPLSSLPLPFLPIYPFPSSKSTQGEENKMTTQDLVAKILHSKSSFV [FGF12] | 4.18
31 | ERSPNLQVQGRYIHI [MARK1] | 1.47
32 | EFLSHSPTSTTTGQLSPFPTL [RNASE13] | 0.565
33 | SCPSFGNILF [RNASET2] | 0.362
34 | AGAQPLPGMRLSADGETATQSFGLCVCVCVCVCVCAHPRVPVCVRILPPGAEVPWVSPLLCNGLLTGAAAPRGLCSGGTQCRM [FGFR3] | 6.29
35 | WRATGPQQCEGSLAAHPAAGAQPLPGMRLSADGETATQSFGLCVCVCVCVCVCAHPRVPVCVRILPPGAEVPWVSPLLCNGLL [FGFR3] | 3.69
36 | WYSFHYSI [BTN3A3] | 6.28
37 | SAGPWDTAFSFARLSACRPGGEPGPANESLVYLGCNSLKVQSFGLQSCPGPGSPGHCCSPRPWALVFLQHHTCCPFSISVCVK [MYO1F] | 7.3
38 | LEKPSSFVETVALQPWRRTCWYLKNGTFATQD [DOCK8] | 6.15
39 | YLYHYSRSSSQHHLLATWDV [GCG] | 12.4
40 | RAHELRL [TNFAIP8] | 0.408
41 | EIF2AK2 | 2.12
42 | QFDNKAEGLSSNMVAFF [ACSM4] | 0.317

Row | Substance | median enrichment
43 | LKPGC [KRTAP1-4] | 0.613
44 | SGWGWTNNQARAEGFMERPLGDPR [S1PR2] | 0.739
45 | YDGGQIKVLAFRCL [KCNMB3] | 9.29
46 | ACVARPDKHLQMAAAPTWDLPRRLEQKGLSLGWCFSSRVLGCMFCTASREGVSGGHHLWDTGSKGPVHSVISFLAPASPTSPR [TMEM141] | 4.72
47 | YWWLVVMNSYSVASSLPASHLPSTSQLLPSLTEANIFI [NTRK3] | 23.2
48 | LPR [ATXN2L] | 0.876
49 | SLREAC [ZNF672] | 0.708
50 | YNYLSPL [FAM104B] | 2.29
51 | SARSAVSSQWILVNWWRLADTLEKPKPESLLFSLFSCLCSVSLNTTFSAMVCG [MRFAP1] | 5.22
52 | NNNNNNNNNN [Asn10] | 0.3
53 | KRQK [CCR2] | 0.621
54 | RGHRSEMRGLECGWAPGAMGGCGAGEIKSELLLPGVPTSSSGQSVHSQPDR [BCL2] | 1.46
55 | SAGRGSAPRKCLLCPGAERRCLLGAGLPPCGSCAPWPGPCPAAPVSPSLSPVLVLACSSSQPRESFPTCPRLLSLPRPVVPSW [ARHGAP39] | 4.7
56 | QFLGLFEYSIPMGIYFLSCH [HHIP] | 13.7
57 | QSYHSGC [USP32] | 0.623
58 | LMLPGIK [CDV3] | 4.97
59 | LVRRLGAPPRLRPASISLLQWPAS [IRF8] | 7.26
60 | RGSRRKQDTRWQA [PHGR1] | 3.92
61 | YILPEDKEKSKYCIGT [IRAK3] | 9.91
